Patent US20230041268A1

Target: CMV pp65 peptide on HLA-A*02:01 (human)
Assay: CD137 up-regulation; peptide titration on the HLA-A02:01 positive B cell line; full-length, on cells
Details: chains Valpha:Vbeta

EC50 of peptide: 10 nM
B1: TCR6-2 (CMV A2/pp65 495-503-specific) (protein)
chain 1: GQQLNQSPQSMFIQEGEDVSMNCTSSSIFNTWLWYKQDPGEGPVLLIALYKAGELTSNGRLTAQFGITRKDSFLNISASIPSDVGIYFCAGPMKTSYDKVIFGPGTSLSVIP
chain 2: DAGVIQSPRHEVTEMGQEVTLRCKPISGHDYLFWYRQTMMRGLELLIYFNNNVPIDDSGMPEDRFSAKMPNASFSTLKIQPSEPRDSAVYFCASSSANYGYTFGSGTRLTVV
